This assay deals with HEK293FT cells transfected with TF library. Nature of the assay: Screening of TF condensates based on fluorescent puncta. Format: cell-based. The settings on record: Figure 1B numerical data; TF library screen, one value per transcriptional factor. The method in brief: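 HEK293FT, PEI transfection of TF library, 60 h; ±glucose 12 h; 4% PFA fix, 0.05% Triton X-100 permeabilization, 5% BSA block; anti-Flag/anti-GAL4 overnight at 4 °C, Alexa 488 secondary 1 h; high-content imaging, 50 fields/well.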

Data on 9 molecules can be found in paper PMC11574045, “A cofactor-induced repressive type of transcription factor condensation can be induced by synthetic peptides to suppress tumorigenesis” (The EMBO Journal, 2024).

B1: ZBTB26 (protein, UniProt Q9HCK0 1-441, looked up)
Zinc finger and BTB …: MSERSDLLHFKFENYGDSMLQKMNKLREENKFCDVTVLIDDIEVQGHKIVFAAGSPFLRDQFLLNDSREVKISILQSSEVGRQLLLSCYSGVLEFPEMELVNYLTAASFLQMSHIVERCTQALWKFIKPKQPMDSKEGCEPQSASPQSKEQQGDARGSPKQDSPCIHPSEDSMDMEDSDIQIVKVESIGDVSEVRSKKDQNQFISSEPTALHSSEPQHSLINSTVENRVSEIEQNHLHNYALSYTGSDNIIMASKDVFGPNIRGVDKGLQWHHQCPKCTRVFRHLENYANHLKMHKLFMCLLCGKTFTQKGNLHRHMRVHAGIKPFQCKICGKTFSQKCSLQDHLNLHSGDKPHKCNYCDMVFAHKPVLRKHLKQLHGKNSFDNANERNVQDLTVDFDSFACTTVTDSKGCQPQPDATQVLDAGKLAQAVLNLRNDSTCVN
In the case of B1, the “Z score of condensed fraction” value turned out to be 0.2152.

B2: ZBTB21 (protein, UniProt Q9ULJ3 1-1066, looked up)
Zinc finger and BTB …: MEGLLHYINPAHAISLLSALNEERLKGQLCDVLLIVGDQKFRAHKNVLAASSEYFQSLFTNKENESQTVFQLDFCEPDAFDNVLNYIYSSSLFVEKSSLAAVQELGYSLGISFLTNIVSKTPQAPFPTCPNRKKVFVEDDENSSQKRSVIVCQSRNEAQGKTVSQNQPDVSHTSRPSPSIAVKANTNKPHVPKPIEPLHNLSLTEKSWPKDSSVVYAKSLEHSGSLDDPNRISLVKRNAVLPSKPLQDREAMDDKPGVSGQLPKGKALELALKRPRPPVLSVCSSSETPYLLKETNKGNGQGEDRNLLYYSKLGLVIPSSGSGSGNQSIDRSGPLVKSLLRRSLSMDSQVPVYSPSIDLKSSQGSSSVSSDAPGNVLCALSQKSSLKDCSEKTALDDRPQVLQPHRLRSFSASQSTDREGASPVTEVRIKTEPSSPLSDPSDIIRVTVGDAATTAAASSSSVTRDLSLKTEDDQKDMSRLPAKRRFQADRRLPFKKLKVNEHGSPVSEDNFEEGSSPTLLDADFPDSDLNKDEFGELEGTRPNKKFKCKHCLKIFRSTAGLHRHVNMYHNPEKPYACDICHKRFHTNFKVWTHCQTQHGIVKNPSPASSSHAVLDEKFQRKLIDIVREREIKKALIIKLRRGKPGFQGQSSSQAQQVIKRNLRSRAKGAYICTYCGKAYRFLSQFKQHIKMHPGEKPLGVNKVAKPKEHAPLASPVENKEVYQCRLCNAKLSSLLEQGSHERLCRNAAVCPYCSLRFFSPELKQEHESKCEYKKLTCLECMRTFKSSFSIWRHQVEVHNQNNMAPTENFSLPVLDHNGDVTGSSRPQSQPEPNKVNHIVTTKDDNVFSDSSEQVNFDSEDSSCLPEDLSLSKQLKIQVKEEPVEEAEEEAPEASTAPKEAGPSKEASLWPCEKCGKMFTVHKQLERHQELLCSVKPFICHVCNKAFRTNFRLWSHFQSHMSQASEESAHKESEVCPVPTNSPSPPPLPPPPPLPKIQPLEPDSPTGLSENPTPATEKLFVPQESDTLFYHAPPLSAITFKRQFMCKLCHRTFKTAFSLWSHEQTHN
Regarding B2, the “Z score of condensed fraction” value is -0.7871.

B3: ZBTB17 (protein, UniProt Q13105 1-803, looked up)
Zinc finger and BTB …: MDFPQHSQHVLEQLNQQRQLGLLCDCTFVVDGVHFKAHKAVLAACSEYFKMLFVDQKDVVHLDISNAAGLGQVLEFMYTAKLSLSPENVDDVLAVATFLQMQDIITACHALKSLAEPATSPGGNAEALATEGGDKRAKEEKVATSTLSRLEQAGRSTPIGPSRDLKEERGGQAQSAASGAEQTEKADAPREPPPVELKPDPTSGMAAAEAEAALSESSEQEMEVEPARKGEEEQKEQEEQEEEGAGPAEVKEEGSQLENGEAPEENENEESAGTDSGQELGSEARGLRSGTYGDRTESKAYGSVIHKCEDCGKEFTHTGNFKRHIRIHTGEKPFSCRECSKAFSDPAACKAHEKTHSPLKPYGCEECGKSYRLISLLNLHKKRHSGEARYRCEDCGKLFTTSGNLKRHQLVHSGEKPYQCDYCGRSFSDPTSKMRHLETHDTDKEHKCPHCDKKFNQVGNLKAHLKIHIADGPLKCRECGKQFTTSGNLKRHLRIHSGEKPYVCIHCQRQFADPGALQRHVRIHTGEKPCQCVMCGKAFTQASSLIAHVRQHTGEKPYVCERCGKRFVQSSQLANHIRHHDNIRPHKCSVCSKAFVNVGDLSKHIIIHTGEKPYLCDKCGRGFNRVDNLRSHVKTVHQGKAGIKILEPEEGSEVSVVTVDDMVTLATEALAATAVTQLTVVPVGAAVTADETEVLKAEISKAVKQVQEEDPNTHILYACDSCGDKFLDANSLAQHVRIHTAQALVMFQTDADFYQQYGPGGTWPAGQVLQAGELVFRPRDGAEGQPALAETSPTAPECPPPAE
With B3, the “Z score of condensed fraction” value is on record as -0.2141.

B4: ZBTB4 (protein, UniProt Q9P1Z0 1-1013, looked up)
Zinc finger and BTB …: MPPPAEVTDPSHAPAVLRQLNEQRLRGLFCDVTLIAGDTKFPAHRSVLAASSPFFREALLTSAPLPLPPATGGAAPNPATTTAASSSSSSSSSSSSSSSSASSSSSSSSSSPPPASPPASSPPRVLELPGVPAAAFSDVLNFIYSARLALPGGGGDGAAVAEIGALGRRLGISRLQGLGEGGDAWVPPTPAPMATSQPEEDSFGPGPRPAGEWEGDRAEAQAPDLQCSLPRRPLPCPQCGKSFIHPKRLQTHEAQCRRGASTRGSTGLGAGGAGPGGPAGVDASALPPPVGFRGGPEHVVKVVGGHVLYVCAACERSYVTLSSLKRHSNVHSWRRKYPCRYCEKVFALAEYRTKHEVWHTGERRYQCIFCWETFVTYYNLKTHQRAFHGISPGLLASEKTPNGGYKPKLNTLKLYRLLPMRAAKRPYKTYSQGAPEAPLSPTLNTPAPVAMPASPPPGPPPAPEPGPPPSVITFAHPAPSVIVHGGSSSGGGGSGTASTGGSQAASVITYTAPPRPPKKREYPPPPPEPAATPTSPATAVSPATAAGPAMATTTEEAKGRNPRAGRTLTYTAKPVGGIGGGGGPPTGAGRGPSQLQAPPPLCQITVRIGEEAIVKRRISETDLRPGELSGEEMEESEEDEEEEDEEEEEEDEEESKAGGEDQLWRPYYSYKPKRKAGAAGGASVGGSGLPRGRRPPRWRQKLERRSWEETPAAESPAGRARTERRHRCGDCAQTFTTLRKLRKHQEAHGGGSHSSRAGRRPSTRFTCPHCAKVCKTAAALSRHGQRHAAERPGGTPTPVIAYSKGSAGTRPGDVKEEAPQEMQVSSSSGEAGGGSTAAEEASETASLQDPIISGGEEPPVVASGGSYVYPPVQEFPLALIGGGREPGGGRGKSGSEGPVGAGEGDRMEGIGAAKVTFYPEPYPLVYGPQLLAAYPYNFSNLAALPVALNMVLPDEKGAGALPFLPGVFGYAVNPQAAPPAPPTPPPPTLPPPIPPKGEGERAGVERTQKGDVG
With B4, the “Z score of condensed fraction” value came to 1.258.

B5: ZBTB38 (protein, UniProt Q8NAP3 1-1195, looked up)
Zinc finger and BTB …: MTVMSLSRDLKDDFHSDTVLSILNEQRIRGILCDVTIIVEDTKFKAHSNVLAASSLYFKNIFWSHTICISSHVLELDDLKAEVFTEILNYIYSSTVVVKRQETVTDLAAAGKKLGISFLEDLTDRNFSNSPGPYVFCITEKGVVKEEKNEKRHEEPAITNGPRITNAFSIIETENSNNMFSPLDLRASFKKVSDSMRTASLCLERTDVCHEAEPVRTLAEHSYAVSSVAEAYRSQPVREHDGSSPGNTGKENCEALAAKPKTCRKPKTFSIPQDSDSATENIPPPPVSNLEVNQERSPQPAAVLTRSKSPNNEGDVHFSREDENQSSDVPGPPAAEVPPLVYNCSCCSKAFDSSTLLSAHMQLHKPTQEPLVCKYCNKQFTTLNRLDRHEQICMRSSHMPIPGGNQRFLENYPTIGQNGGSFTGPEPLLSENRIGEFSSTGSTLPDTDHMVKFVNGQMLYSCVVCKRSYVTLSSLRRHANVHSWRRTYPCHYCNKVFALAEYRTRHEIWHTGERRYQCIFCLETFMTYYILKNHQKSFHAIDHRLSISKKTANGGLKPSVYPYKLYRLLPMKCKRAPYKSYRNSSYENARENSQMNESAPGTYVVQNPHSSELPTLNFQDTVNTLTNSPAIPLETSACQDIPTSANVQNAEGTKWGEEALKMDLDNNFYSTEVSVSSTENAVSSDLRAGDVPVLSLSNSSENAASVISYSGSAPSVIVHSSQFSSVIMHSNAIAAMTSSNHRAFSDPAVSQSLKDDSKPEPDKVGRFASRPKSIKEKKKTTSHTRGEIPEESNYVADPGGSLSKTTNIAEETSKIETYIAKPALPGTSTNSNVAPLCQITVKIGNEAIVKRHILGSKLFYKRGRRPKYQMQEEPLPQGNDPEPSGDSPLGLCQSECMEMSEVFDDASDQDSTDKPWRPYYNYKPKKKSRQLKKMRKVNWRKEHGNRSPSHKCKYPAELDCAVGKAPQDKPFEEEETKEMPKLQCELCDGDKAVGAGNQGRPHRHLTSRPYACELCAKQFQSPSTLKMHMRCHTGEKPYQCKTCGRCFSVQGNLQKHERIHLGLKEFVCQYCNKAFTLNETLKIHERIHTGEKRYHCQFCFQRFLYLSTKRNHEQRHIREHNGKGYACFQCPKICKTAAALGMHQKKHLFKSPSQQEKIGDVCHENSNPLENQHFIGSEDNDQKDNIQTGVENVVL
As for B5, the “Z score of condensed fraction” value is recorded as -1.284.

B6: ZBTB37 (protein, UniProt Q5TC79 1-503, looked up)
Zinc finger and BTB …: MEKGGNIQLEIPDFSNSVLSHLNQLRMQGRLCDIVVNVQGQAFRAHKVVLAASSPYFRDHMSLNEMSTVSISVIKNPTVFEQLLSFCYTGRICLQLADIISYLTAASFLQMQHIIDKCTQILEGIHFKINVAEVEAELSQTRTKHQERPPESHRVTPNLNRSLSPRHNTPKGNRRGQVSAVLDIRELSPPEESTSPQIIEPSSDVESREPILRINRAGQWYVETGVADRGGRSDDEVRVLGAVHIKTENLEEWLGPENQPSGEDGSSAEEVTAMVIDTTGHGSVGQENYTLGSSGAKVARPTSSEVDRFSPSGSVVPLTERHRARSESPGRMDEPKQPSSQVEESAMMGVSGYVEYLREQEVSERWFRYNPRLTCIYCAKSFNQKGSLDRHMRLHMGITPFVCRMCGKKYTRKDQLEYHIRKHTGNKPFHCHVCGKSFPFQAILNQHFRKNHPGCIPLEGPHSISPETTVTSRGQAEEESPSQEETVAPGEAVQGSVSTTGPD
Regarding B6, the “Z score of condensed fraction” value is 0.3942.

B7: C1D (protein, UniProt Q13901 1-141, looked up)
Nuclear nucleic acid-binding …: MAGEEINEDYPVEIHEYLSAFENSIGAVDEMLKTMMSVSRNELLQKLDPLEQAKVDLVSAYTLNSMFWVYLATQGVNPKEHPVKQELERIRVYMNRVKEITDKKKAGKLDRGAASRFVKNALWEPKSKNASKVANKGKSKS
Take B7: the “Z score of condensed fraction” value was -0.3287.

B8: YAF2 (protein, UniProt Q8IY57 1-180, looked up)
YY1-associated factor 2: MGDKKSPTRPKRQPKPSSDEGYWDCSVCTFRNSAEAFKCMMCDVRKGTSTRKPRPVSQLVAQQVTQQFVPPTQSKKEKKDKVEKEKSEKETTSKKNSHKKTRPRLKNVDRSSAQHLEVTVGDLTVIITDFKEKTKSPPASSAASADQHSQSGSSSDNTERGMSRSSSPRGEASSLNGESH
As to B8, the “Z score of condensed fraction” value was 1.84.

B9: ZBED2 (protein, UniProt Q9BTP6 1-218, looked up)
Zinc finger BED …: MMRREDEEEEGTMMKAKGDLEMKEEEEISETGELVGPFVSAMPTPMPHNKGTRFSEAWEYFHLAPARAGHHPNQYATCRLCGRQVSRGPGVNVGTTALWKHLKSMHREELEKSGHGQAGQRQDPRPHGPQLPTGIEGNWGRLLEQVGTMALWASQREKEVLRRERAVEWRERAVEKRERALEEVERAILEMKWKVRAEKEACQREKELPAAVHPFHFV
As for B9, the “Z score of condensed fraction” value is reported as 0.7838.
